Measurements taken from publication PMC9747964 (Nature Communications, 2022).
Numbering of substitutions follows the chain as printed.

How the values were obtained:
Details in all cases: protein: recombinant; tags: as P1; blunt
ComEAGs-A108Y [1] = biological target: T1, ComEAGs-A108Y (Geobacillus stearothermophilus (ATCC …, UniProt A0A0K9HI54 60-207, A108Y)); assay: MW-AUC; 1.5 uM DNA, 10:1 protein:DNA; >90% DNA bound; ~4.7:1 complex, 6.3 S; MW-AUC: 10 mM Tris pH 8, 100 mM KCl, 20 C; EMSA: 10 mM Tris pH 8, 100 mM KCl, 2.5% glycerol, 0.5 mM EDTA, 1 mM MgCl2, room temperature 15 min, 8% native gel in
T1 sequence: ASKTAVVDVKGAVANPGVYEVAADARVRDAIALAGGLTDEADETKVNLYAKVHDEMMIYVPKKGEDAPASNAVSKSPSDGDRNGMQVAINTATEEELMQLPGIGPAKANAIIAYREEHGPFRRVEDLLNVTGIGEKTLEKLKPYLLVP

ComEAGs-A108Y [2] = biological target: T1, ComEAGs-A108Y; assay: MW-AUC; 1.5 uM DNA, 5:1 and 10:1 protein:DNA; >90% DNA bound; ~2:1 complex, 3.3-3.5 S; MW-AUC: 10 mM Tris pH 8, 100 mM KCl, 20 C; EMSA: 10 mM Tris pH 8, 100 mM KCl, 2.5% glycerol, 0.5 mM EDTA, 1 mM MgCl2, room temperature 15 min, 8% native gel in
ComEAGs-K201A = biological target: T2, ComEAGs-K201A (Geobacillus stearothermophilus (ATCC …, UniProt A0A0K9HI54 60-207, K201A)); assay: EMSA; 0.5 uM DNA, 1 mM MgCl2; MW-AUC: 10 mM Tris pH 8, 100 mM KCl, 20 C; EMSA: 10 mM Tris pH 8, 100 mM KCl, 2.5% glycerol, 0.5 mM EDTA, 1 mM MgCl2, room temperature 15 min, 8% native gel in
T2 sequence: T1 sequence with Y49A, K142A

ComEAGs-K166A = biological target: T3, ComEAGs-K166A (Geobacillus stearothermophilus (ATCC …, UniProt A0A0K9HI54 60-207, K166A)); assay: as above
T3 sequence: T1 sequence with Y49A, K107A

B1: EAGs40bp (dsDNA)
DNA 1: CGTTAGCACTGTGAATATCACTACAGCAACCTTAGAATCG
DNA 2: CGATTCTAAGGTTGCTGTAGTGATATTCACAGTGCTAACG
B1: binds (ComEAGs-A108Y [1]).

B2: EAGs14bp (dsDNA)
DNA 1: GTAGGACCATCTGC
DNA 2: GCAGATGGTCCTAC
B2: binds (ComEAGs-A108Y [2]).

B3: EAGs30bp (dsDNA)
DNA 1: GCACTGTGAATATCACTACAGCAACCTTAG
DNA 2: CTAAGGTTGCTGTAGTGATATTCACAGTGC
In the case of B3, the binding signal (ComEAGs-K201A) is reported as ~2 fold decrease in apparent affinity vs wild-type and the binding result (ComEAGs-K166A) is reported as “no binding”.
